Experimental data as given in patent US20060148038A1 (INST NAT L DE LA SANTE ET DE LA RECH MEDICALE, published 2006).

Experiments:
D-Phe-Phe-Arg-CH3Cl [1] = assay: inactivation kinetics: residual amidolytic activity on S2765 after incubation with D-FFR-CK, pseudo-first order, 25° C.
FX-recombinant (zymogen) = FX-recombinant (zymogen) (UniProt P00742)
GDX-AVG (zymogen) = GDX-AVG (zymogen) (UniProt P00742)
GDX-IFG (zymogen) = GDX-IFG (zymogen) (UniProt P00742)
GDX-IVG (zymogen) = GDX-IVG (zymogen) (UniProt P00742)
GDX-SFR (zymogen) = GDX-SFR (zymogen) (UniProt P00742)
GDX-SVG (zymogen) = GDX-SVG (zymogen) (UniProt P00742)
[2] = target: prothrombin (immunopurified)
[3] = target: T1, antithrombin (purified from human plasma) (human, UniProt P01008 33-464); assay: inhibition kinetics, continuous S2765 hydrolysis, pseudo-first order, no heparin, 25° C.
T1 construct: mature
Excerpt: The method by continuous recording of the absorbance at 405 nm under pseudo-first order conditions is used to estimate (in the absence of heparin) the kₒₙ of the antithrombin for the activated form of the factor X derivative lacking Gla domain, and those of the activated forms of the GDX-IVG and GDX-IFG derivatives.

[4] = target: T1, antithrombin (purified from human …); assay: inhibition kinetics, continuous S2765 hydrolysis, second-order (slow tight-binding) conditions, 2 units/ml heparin, 25° C.
Protocol: The kinetics are studied at 25° C., in kinetics buffer containing 1 mg/ml of protease-free bovine albumin and 2 units per ml of heparin; they are followed continuously by virtue of the presence in the reaction medium of 400 μM S2765. The reaction is carried out in a microcuvette in a volume of 600 μl, following the kinetics using a lambda 14 spectrophotometer. The reaction is triggered by adding the minimum amount of activated form of the factor X derivative which is compatible with a reliable signal (1 to 2.5 nM depending on the derivative, such that, in the absence of inhibitor, approximately 10% of the chromogenic substrate is hydrolysed in 60 minutes). For each activated form of factor X derivative, the reaction is carried out in the presence of two concentrations of antithrombin, equal to 2 and 3 times the concentration of the target. By plotting the absorbance at 405 nm as a function of time, a curve is obtained which makes it possible, by non-linear regression using equation 6, to estimate the second-order rate constant for the reaction. The kₒₙ of the antithrombin for the activated form of the factor X derivative is given by equation 5 which takes into consideration the competition introduced by the substrate during the kinetics.

[5] = target: T1, antithrombin (purified from human …); assay: SDS-PAGE of covalent complexes, 1 µM derivative, 2 µM antithrombin, 2 units/ml heparin
Protocol: The incubation is sustained for one hour at 25° C., and the reaction mixture is analysed by polyacrylamide gel electrophoresis (10%, crosslinking 29/1), after denaturation and reduction of the sample. After staining with Coomassie blue, the presence of covalent complexes between the (inactivated) form of the factor X derivative and the antithrombin results in a decrease in the intensity of the band corresponding to antithrombin (60 kDa), a decrease in the intensity of the band corresponding to the activated form of the factor X derivative (31 kDa), and the appearance of a new band of higher molecular weight (approximately 100 kDa) corresponding to the covalent complex.

[6] = target: T1, antithrombin (purified from human …); assay: inhibition kinetics with antithrombin, no heparin
D-Phe-Phe-Arg-CH3Cl [7] = assay: inactivation kinetics with D-FFR-CK, residual amidolytic activity on S2765
[8] = target: T1, antithrombin (purified from human …); assay: inhibition kinetics, batchwise residual amidolytic activity on S2765, pseudo-first order, 2 units/ml heparin, 25° C.
Protocol: The method by batchwise sampling of aliquots is used to estimate the kₒₙ of the antithrombin for the activated form of the GDX-AVG derivative (in the presence and the absence of heparin).
The reaction is carried out in kinetics buffer containing 1 mg/ml of protease-free bovine albumin (SIGMA, St Quentin-Fallavier, France) and, when appropriate, 2 units per ml of heparin (KORDIA). In a reaction volume of 10 μl, a sufficient amount of the activated form of the GDX-AVG derivative (0.5 μM in the presence of heparin, 1 μM in its absence) is incubated in the presence of a large excess of antithrombin (5 μM in the presence of heparin, 10 μM in its absence), for a varying amount of time at 25° C. The same experiment is repeated twelve times, varying the incubation time from one experiment to another (from 10 seconds for the first to 5 hours for the last, such that the incubation time for a given experiment is equal to double that of the preceding one). At the end of each incubation, 190 μl of S2765 (200 μM in kinetics buffer) are added, and the residual amidolytic activity is measured by recording the variation in the absorbance at 405 nm as a function of time (i.e. the initial rate of hydrolysis of the S2765) using an MR5000 microplate reader. […]

T1 sequence (P01008 33-464): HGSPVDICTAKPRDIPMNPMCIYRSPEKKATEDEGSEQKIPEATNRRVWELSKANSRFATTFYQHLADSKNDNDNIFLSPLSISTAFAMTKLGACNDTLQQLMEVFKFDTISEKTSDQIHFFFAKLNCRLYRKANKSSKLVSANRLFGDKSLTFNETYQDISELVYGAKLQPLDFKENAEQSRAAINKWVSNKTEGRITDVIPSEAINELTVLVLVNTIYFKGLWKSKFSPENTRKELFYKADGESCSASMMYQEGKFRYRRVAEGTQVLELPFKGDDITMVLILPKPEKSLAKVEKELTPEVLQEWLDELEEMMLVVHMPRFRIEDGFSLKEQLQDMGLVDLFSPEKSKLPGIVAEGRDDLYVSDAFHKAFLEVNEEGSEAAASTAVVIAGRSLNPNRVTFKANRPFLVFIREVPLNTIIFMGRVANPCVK

activated form of the factor X from plasma (from UniProt P00742 41-179; P00742 235-488) (enzyme)
kon (D-Phe-Phe-Arg-CH3Cl [1]): 2300 M⁻¹ s⁻¹

thrombin
cleavage of the factor X derivative by thrombin (FX-recombinant (zymogen)): the FX-recombinant is not detectably cleavable by thrombin (ND) | kcat/Km (M^-1 s^-1) for the activation of the factor X derivative by thrombin (GDX-AVG (zymogen)): 1 10^2 (±9%) | kcat/Km (M^-1 s^-1) for the activation of the factor X derivative by thrombin (GDX-IFG (zymogen)): < 1 M⁻¹ s⁻¹ | kcat/Km (M^-1 s^-1) for the activation of the factor X derivative by thrombin (GDX-IVG (zymogen)): < 1 M⁻¹ s⁻¹ | kcat/Km (M^-1 s^-1) for the activation of the factor X derivative by thrombin (GDX-SFR (zymogen)): 4 10^3 (±27%) | kcat/Km (M^-1 s^-1) for the activation of the factor X derivative by thrombin (GDX-SVG (zymogen)): < 1 M⁻¹ s⁻¹

B1: activated form of the GDX-IVG derivative (enzyme, human)
light: EDQVDPRLIDGKDGDQCETSPCQNQGKCKDGLGEYTCTCLEGFEGKNCELFTRKLCSLDNGDCDQFCHEEQNSVVCSCARGYTLADNGKACIPTGPYPCGKQTLER
heavy: IVGGQECKDGECPWQALLINEENEGFCGGTILSEFYILTAAHCLYQAKRFKVRVGDRNTEQEEGGEAVHEVEVVIKHNRFTKETYDFDIAVLRLKTPITFRMNVAPACLPERDWAESTLMTQKTGIVSGFGRTHEKGRQSTRLKMLEVPYVDRNSCKLSSSFIITQNMFCAGYDTKQEDACQGDSGGPHVTRFKDTYFVTGIVSWGEGCARKGKYGIYTKVTAFLKWIDRSMKTRGLPKAKSHAPEVITSSPLKEQKLISEEDLN
notes: domain: two EGF domains;domain: catalytic domain
coefficient of acceleration of pNA release by the thrombin generated by the prothrombinase complex (+factor Va) (factor Va (KORDIA)): 1.1 10^-4 (±1%) | fold increase of the rate of activation of the prothrombin on addition of factor Va (factor Va (KORDIA)): the addition of factor Va increases the rate of activation of the prothrombin 50-fold and 10-fold respectively | coefficient of acceleration of pNA release by the thrombin generated by the activated factor X derivative alone (-factor Va) [2]: 2.8 10^-5 (±2%) | kon [3]: 5800 M⁻¹ s⁻¹ | kon (D-Phe-Phe-Arg-CH3Cl [1]): 2250 M⁻¹ s⁻¹ | kon [4]: 2e+07 M⁻¹ s⁻¹

B2: activated form of the GD-FX derivative (enzyme, human)
light: EDQVDPRLIDGKDGDQCETSPCQNQGKCKDGLGEYTCTCLEGFEGKNCELFTRKLCSLDNGDCDQFCHEEQNSVVCSCARGYTLADNGKACIPTGPYPCGKQTLER
heavy: IVGGQECKDGECPWQALLINEENEGFCGGTILSEFYILTAAHCLYQAKRFKVRVGDRNTEQEEGGEAVHEVEVVIKHNRFTKETYDFDIAVLRLKTPITFRMNVAPACLPERDWAESTLMTQKTGIVSGFGRTHEKGRQSTRLKMLEVPYVDRNSCKLSSSFIITQNMFCAGYDTKQEDACQGDSGGPHVTRFKDTYFVTGIVSWGEGCARKGKYGIYTKVTAFLKWIDRSMKTRGLPKAKSHAPEVITSSPLKEQKLISEEDLN
notes: as for B1
coefficient of acceleration of pNA release by the thrombin generated by the prothrombinase complex (+factor Va) (factor Va (KORDIA)): 4.2 10^-4 (±2%) | fold increase of the rate of activation of the prothrombin on addition of factor Va (factor Va (KORDIA)): the addition of factor Va increases the rate of activation of the prothrombin 50-fold and 10-fold respectively | coefficient of acceleration of pNA release by the thrombin generated by the activated factor X derivative alone (-factor Va) [2]: 8.8 10^-6 (±2%) | kon [3]: 12000 M⁻¹ s⁻¹ | kon (D-Phe-Phe-Arg-CH3Cl [1]): 2230 M⁻¹ s⁻¹ | kon [4]: 1.3e+07 M⁻¹ s⁻¹

B3: activated form of the GDX-SVG derivative (enzyme, human)
light: EDQVDPRLIDGKDGDQCETSPCQNQGKCKDGLGEYTCTCLEGFEGKNCELFTRKLCSLDNGDCDQFCHEEQNSVVCSCARGYTLADNGKACIPTGPYPCGKQTLER
heavy: SVGGQECKDGECPWQALLINEENEGFCGGTILSEFYILTAAHCLYQAKRFKVRVGDRNTEQEEGGEAVHEVEVVIKHNRFTKETYDFDIAVLRLKTPITFRMNVAPACLPERDWAESTLMTQKTGIVSGFGRTHEKGRQSTRLKMLEVPYVDRNSCKLSSSFIITQNMFCAGYDTKQEDACQGDSGGPHVTRFKDTYFVTGIVSWGEGCARKGKYGIYTKVTAFLKWIDRSMKTRGLPKAKSHAPEVITSSPLKEQKLISEEDLN
notes: as for B1
binding result [5]: binds

B4: activated form of the GDX-AVG derivative (enzyme, human)
light: EDQVDPRLIDGKDGDQCETSPCQNQGKCKDGLGEYTCTCLEGFEGKNCELFTRKLCSLDNGDCDQFCHEEQNSVVCSCARGYTLADNGKACIPTGPYPCGKQTLER
heavy: AVGGQECKDGECPWQALLINEENEGFCGGTILSEFYILTAAHCLYQAKRFKVRVGDRNTEQEEGGEAVHEVEVVIKHNRFTKETYDFDIAVLRLKTPITFRMNVAPACLPERDWAESTLMTQKTGIVSGFGRTHEKGRQSTRLKMLEVPYVDRNSCKLSSSFIITQNMFCAGYDTKQEDACQGDSGGPHVTRFKDTYFVTGIVSWGEGCARKGKYGIYTKVTAFLKWIDRSMKTRGLPKAKSHAPEVITSSPLKEQKLISEEDLN
notes: as for B1
coefficient of acceleration of pNA release by the thrombin generated by the prothrombinase complex (+factor Va) (factor Va (KORDIA)): 3.1 10^-5 (±1%) | rate of activation of the prothrombin with factor Va, against the non-mutated homologue (GDX-IVG) (factor Va (KORDIA)): this is now only 13 times less than that obtained for the activated form of its non-mutated homologue (GDX-IVG) | coefficient of acceleration of pNA release by the thrombin generated by the activated factor X derivative alone (-factor Va) [2]: 9.6 10^-7 (±2%) | fold decrease of kon against its non-mutated homologue (no heparin) [6]: > 1000 times less | fold decrease of kon against the activated form of the factor X from plasma (D-Phe-Phe-Arg-CH3Cl [7]): 1000 times less | kon [8]: 300 M⁻¹ s⁻¹

B5: activated form of the GDX-IFG derivative (enzyme, human)
light: EDQVDPRLIDGKDGDQCETSPCQNQGKCKDGLGEYTCTCLEGFEGKNCELFTRKLCSLDNGDCDQFCHEEQNSVVCSCARGYTLADNGKACIPTGPYPCGKQTLER
heavy: IFGGQECKDGECPWQALLINEENEGFCGGTILSEFYILTAAHCLYQAKRFKVRVGDRNTEQEEGGEAVHEVEVVIKHNRFTKETYDFDIAVLRLKTPITFRMNVAPACLPERDWAESTLMTQKTGIVSGFGRTHEKGRQSTRLKMLEVPYVDRNSCKLSSSFIITQNMFCAGYDTKQEDACQGDSGGPHVTRFKDTYFVTGIVSWGEGCARKGKYGIYTKVTAFLKWIDRSMKTRGLPKAKSHAPEVITSSPLKEQKLISEEDLN
notes: domain: two EGF domains;domain: catalytic domain; Position 236 counted from the printed Ile235 = P1′
coefficient of acceleration of pNA release by the thrombin generated by the prothrombinase complex (+factor Va) (factor Va (KORDIA)): 4.9 10^-6 (±1%) | coefficient of acceleration of pNA release by the thrombin generated by the activated factor X derivative alone (-factor Va) [2]: 1.0 10^-7 (±2%) | fold decrease of kon against the non-mutated activated forms (no heparin) [6]: 66 times smaller | fold decrease of kon against the activated form of the factor X from plasma (D-Phe-Phe-Arg-CH3Cl [7]): 20 times lower | kon [3]: 180 M⁻¹ s⁻¹ | kon [4]: 760000 M⁻¹ s⁻¹

B6: activated form of the GDX-IFR derivative (enzyme, human)
light: EDQVDPRLIDGKDGDQCETSPCQNQGKCKDGLGEYTCTCLEGFEGKNCELFTRKLCSLDNGDCDQFCHEEQNSVVCSCARGYTLADNGKACIPTGPYPCGKQTLER
heavy: IFRGQECKDGECPWQALLINEENEGFCGGTILSEFYILTAAHCLYQAKRFKVRVGDRNTEQEEGGEAVHEVEVVIKHNRFTKETYDFDIAVLRLKTPITFRMNVAPACLPERDWAESTLMTQKTGIVSGFGRTHEKGRQSTRLKMLEVPYVDRNSCKLSSSFIITQNMFCAGYDTKQEDACQGDSGGPHVTRFKDTYFVTGIVSWGEGCARKGKYGIYTKVTAFLKWIDRSMKTRGLPKAKSHAPEVITSSPLKEQKLISEEDLN
notes: as for B1
coefficient of acceleration of pNA release by the thrombin generated by the prothrombinase complex (+factor Va) (factor Va (KORDIA)): 3.3 10^-6 (±1%) | binding result [5]: binds
